According to patent US9738911B2, “Methods of producing 7-carbon chemicals via pyruvate and succinate semialdehyde aldol condensation” (INVISTA North America S.a r.l., priority 2012, dated 2017):
Each block holds one molecule with its values, some of them ahead of it.

Columns and labels:
Type in all cases: biochemical
[1] = ω-transaminase activity assay, 7-aminoheptanol to 7-oxoheptanol; settings: for substrate acceptance, formation of L-alanine by RP-HPLC: 10 mM 7-aminoheptanol, 10 mM pyruvate, cell free extract, 25° C., 4 h, against empty vector control (FIG. 19); for acceptance of 7-oxoheptanol, forming 7-aminoheptanol, concluded from reversibility: concluded from the reverse direction assay and Example 2
Method: A nucleotide sequence encoding an N-terminal His-tag was added to the Chromobacterium violaceum, Pseudomonas syringae and Rhodobacter sphaeroides genes encoding the ω-transaminases of SEQ ID NOs: 8, 10 and 11, respectively (see FIGS. 7F and 7G) such that N-terminal HIS tagged ω-transaminases could be produced. The modified genes were cloned into a pET21a expression vector under the T7 promoter.
Each expression vector was transformed into a BL21[DE3] E. coli host. Each resulting recombinant E. coli strain were cultivated at 37° C. in a 250 mL shake flask culture containing 50 mL LB media and antibiotic selection pressure, with shaking at 230 rpm. Each culture was induced overnight at 16° C. using 1 mM IPTG.
(§1) The pellet from each induced shake flask culture was harvested via centrifugation. Each pellet was resuspended and lysed via sonication. The cell debris was separated from the supernatant via centrifugation and the cell free extract was used immediately in enzyme activity assays.
(§2) Enzyme activity assays in the reverse direction (i.e., 7-aminoheptanol to 7-oxoheptanol) were performed in a buffer composed of a final concentration of 50 mM HEPES buffer (pH=7.5), 10 mM 7-aminoheptanol, 10 mM pyruvate, and 100 μM pyridoxyl 5′ phosphate. Each enzyme activity assay reaction was initiated by adding cell free extract of the ω-transaminase gene product or the empty vector control to the assay buffer containing the 7-aminoheptanol and then incubated at 25° C. for 4 h, with shaking at 250 rpm. The formation of L-alanine was quantified via RP-HPLC.

[2] = ω-transaminase activity assay, reverse direction, 7-aminoheptanoate to pimelate semialdehyde; settings: 10 mM 7-aminoheptanoate, 10 mM pyruvate, cell free extract, 25° C., 4 h; against empty vector control (FIG. 15)
Method: (§3) A sequence encoding an N-terminal His-tag was added to the genes from Chromobacterium violaceum, Pseudomonas syringae, Rhodobacter sphaeroides, and Vibrio Fluvialis encoding the ω-transaminases of SEQ ID NOs: 8, 10, 11 and 13, respectively (see FIGS. 7F-7G) such that N-terminal HIS tagged ω-transaminases could be produced. Each of the resulting modified genes was cloned into a pET21a expression vector under control of the T7 promoter and each expression vector was transformed into a BL21[DE3] E. coli host. The resulting recombinant E. coli strains were cultivated at 37° C. in a 250 mL shake flask culture containing 50 mL LB media and antibiotic selection pressure, with shaking at 230 rpm. Each culture was induced overnight at 16° C. using 1 mM IPTG.
as §1
as §2, with “7-aminoheptanoate” for “7-aminoheptanol”, “pimelate semialdehyde)” for “7-oxoheptanol)”, “7-aminoheptanoate,” for “7-aminoheptanol,”, “pyruvate” for “pyruvate,”, “and” for “and then”, “L-alanine from pyruvate” for “L-alanine”

[3] = ω-transaminase activity assay, forward direction, pimelate semialdehyde to 7-aminoheptanoate; settings: for substrate acceptance, formation of pyruvate from L-alanine by RP-HPLC: 10 mM pimelate semialdehyde, 10 mM L-alanine, cell free extract, 25° C., 4 h, against empty vector control (FIG. 16); for reversibility of ω-transaminase activity: pimelate semialdehyde accepted, 7-aminoheptanoate synthesized: conclusion from the forward and reverse assays of Example 2
Method: as §3, §1
Enzyme activity in the forward direction (i.e., pimelate semialdehyde to 7-aminoheptanoate) was confirmed for the transaminases of SEQ ID NO 10, SEQ ID NO 11 and SEQ ID NO 13. Enzyme activity assays were performed in a buffer composed of a final concentration of 50 mM HEPES buffer (pH=7.5), 10 mM pimelate semialdehyde, 10 mM L-alanine and 100 μM pyridoxyl 5′ phosphate. Each enzyme activity assay reaction was initiated by adding a cell free extract of the ω-transaminase gene product or the empty vector control to the assay buffer containing the pimelate semialdehyde and incubated at 25° C. for 4 h, with shaking at 250 rpm. The formation of pyruvate was quantified via RP-HPLC.

[4] = Carboxylate reductase activity assay, N7-acetyl-7-aminoheptanoate to N7-acetyl-7-aminoheptanal; settings: 2 mM N7-acetyl-7-aminoheptanoate, 1 mM ATP, 1 mM NADPH, enhanced by sfp gene product, room temperature, 20 min; against empty vector control (FIG. 12)
Method: The activity of each of the N-terminal His-tagged carboxylate reductases of SEQ ID NOs: 3, 6, and 7 (see Examples 4, and FIGS. 7B, 7E, and 7F) for converting N7-acetyl-7-aminoheptanoate to N7-acetyl-7-aminoheptanal was assayed in triplicate in a buffer composed of a final concentration of 50 mM HEPES buffer (pH=7.5), 2 mM N7-acetyl-7-aminoheptanoate, 10 mM MgCl2, 1 mM ATP, and 1 mM NADPH. The assays were initiated by adding purified carboxylate reductase and phosphopantetheine transferase or the empty vector control to the assay buffer containing the N7-acetyl-7-aminoheptanoate then incubated at room temperature for 20 min. The consumption of NADPH was monitored by absorbance at 340 nm.

substrate acceptance, formation of L-alanine by RP-HPLC [1]: accepted 7-aminoheptanol as substrate
substrate acceptance, formation of L-alanine from pyruvate by RP-HPLC [2]: accepted 7-aminoheptanote as substrate
Molecule: SEQ ID NO 11: Rhodobacter sphaeroides ω-transaminase (Genbank Accession No. ABA81135.1)
acceptance of 7-oxoheptanol, forming 7-aminoheptanol, concluded from reversibility [1]: accept 7-oxoheptanol as substrate and form 7-aminoheptanol
substrate acceptance, formation of pyruvate from L-alanine by RP-HPLC [3]: accepted pimelate semialdehyde as substrate
reversibility of ω-transaminase activity: pimelate semialdehyde accepted, 7-aminoheptanoate synthesized [3]: accepted pimelate semialdehyde as substrate and synthesized 7-aminoheptanoate as a reaction product

substrate acceptance, formation of L-alanine by RP-HPLC [1]: accepted 7-aminoheptanol as substrate
substrate acceptance, formation of L-alanine from pyruvate by RP-HPLC [2]: accepted 7-aminoheptanote as substrate
B2: SEQ ID NO 10: Pseudomonas syringae ω-transaminase (Genbank Accession No. AAY39893.1) (protein, listed as Pseudomonas syringae)
chain: MSANNPQTLEWQALSSEHHLAPFSDYKQLKEKGPRIITRAEGVYLWDSEGNKILDGMSGLWCVAIGYGREELADAASKQMRELPYYNLFFQTAHPPVLELAKAISDIAPEGMNHVFFTGSGSEGNDTMLRMVRHYWALKGQPNKKTIISRVNGYHGSTVAGASLGGMTYMHEQGDLPIPGVVHIPQPYWFGEGGDMTPDEFGIWAAEQLEKKILELGVENVGAFIAEPIQGAGGVIVPPDSYWPKIKEILSRYDILFAADEVICGFGRTSEWFGSDFYGLRPDMMTIAKGLTSGYVPMGGLIVRDEIVAVLNEGGDFNHGFTYSGHPVAAAVALENIRILREEKIVERVRSETAPYLQKRLRELSDHPLVGEVRGVGLLGAIELVKDKTTRERYTDKGAGMICRTFCFDNGLIMRAVGDTMIIAPPLVISFAQIDELVEKARTCLDLTLAVLQG
acceptance of 7-oxoheptanol, forming 7-aminoheptanol, concluded from reversibility [1]: accept 7-oxoheptanol as substrate and form 7-aminoheptanol
substrate acceptance, formation of pyruvate from L-alanine by RP-HPLC [3]: accepted pimelate semialdehyde as substrate
reversibility of ω-transaminase activity: pimelate semialdehyde accepted, 7-aminoheptanoate synthesized [3]: accepted pimelate semialdehyde as substrate and synthesized 7-aminoheptanoate as a reaction product

The next lines start with the molecule.

B1: SEQ ID NO 8: Chromobacterium violaceum ω-transaminase (Genbank Accession No. AAQ59697.1) (protein, listed as Chromobacterium violaceum)
chain: MQKQRTTSQWRELDAAHHLHPFTDTASLNQAGARVMTRGEGVYLWDSEGNKIIDGMAGLWCVNVGYGRKDFAEAARRQMEELPFYNTFFKTTHPAVVELSSLLAEVTPAGFDRVFYTNSGSESVDTMIRMVRRYWDVQGKPEKKTLIGRWNGYHGSTIGGASLGGMKYMHEQGDLPIPGMAHIEQPWWYKHGKDMTPDEFGVVAARWLEEKILEIGADKVAAFVGEPIQGAGGVIVPPATYWPEIERICRKYDVLLVADEVICGFGRTGEWFGHQHFGFQPDLFTAAKGLSSGYLPIGAVFVGKRVAEGLIAGGDFNHGFTYSGHPVCAAVAHANVAALRDEGIVQRVKDDIGPYMQKRWRETFSRFEHVDDVRGVGMVQAFTLVKNKAKRELFPDFGEIGTLCRDIFFRNNLIMRACGDHIVSAPPLVMTRAEVDEMLAVAERCLEEFEQTLKARGLA
substrate acceptance, formation of L-alanine by RP-HPLC [1]: accepted 7-aminoheptanol as substrate
acceptance of 7-oxoheptanol, forming 7-aminoheptanol, concluded from reversibility [1]: accept 7-oxoheptanol as substrate and form 7-aminoheptanol
substrate acceptance, formation of L-alanine from pyruvate by RP-HPLC [2]: accepted 7-aminoheptanote as substrate
reversibility of ω-transaminase activity: pimelate semialdehyde accepted, 7-aminoheptanoate synthesized [3]: accepted pimelate semialdehyde as substrate and synthesized 7-aminoheptanoate as a reaction product

B3: SEQ ID NO 3: Mycobacterium smegmatis carboxylate reductase (Genbank Accession No. ABK71854.1) (protein, listed as Mycobacterium smegmatis)
chain: MTSDVHDATDGVTETALDDEQSTRRIAELYATDPEFAAAAPLPAVVDAAHKPGLRLAEILQTLFTGYGDRPALGYRARELATDEGGRTVTRLLPRFDTLTYAQVWSRVQAVAAALRHNFAQPIYPGDAVATIGFASPDYLTLDLVCAYLGLVSVPLQHNAPVSRLAPILAEVEPRILTVSAEYLDLAVESVRDVNSVSQLVVFDHHPEVDDHRDALARAREQLAGKGIAVTTLDAIADEGAGLPAEPIYTADHDQRLAMILYTSGSTGAPKGAMYTEAMVARLWTMSFITGDPTPVINVNFMPLNHLGGRIPISTAVQNGGTSYFVPESDMSTLFEDLALVRPTELGLVPRVADMLYQHHLATVDRLVTQGADELTAEKQAGAELREQVLGGRVITGFVSTAPLAAEMRAFLDITLGAHIVDGYGLTETGAVTRDGVIVRPPVIDYKLIDVPELGYFSTDKPYPRGELLVRSQTLTPGYYKRPEVTASVFDRDGYYHTGDVMAETAPDHLVYVDRRNNVLKLAQGEFVAVANLEAVFSGAALVRQIFVYGNSERSFLLAVVVPTPEALEQYDPAALKAALADSLQRTARDAELQSYEVPADFIVETEPFSAANGLLSGVGKLLRPNLKDRYGQRLEQMYADIAATQANQLRELRRAAATQPVIDTLTQAAATILGTGSEVASDAHFTDLGGDSLSALTLSNLLSDFFGFEVPVGTIVNPATNLAQLAQHIEAQRTAGDRRPSFTTVHGADATEIRASELTLDKFIDAETLRAAPGLPKVTTEPRTVLLSGANGWLGRFLTLQWLERLAPVGGTLITIVRGRDDAAARARLTQAYDTDPELSRRFAELADRHLRVVAGDIGDPNLGLTPEIWHRLAAEVDLVVHPAALVNHVLPYRQLFGPNVVGTAEVIKLALTERIKPVTYLSTVSVAMGIPDFEEDGDIRTVSPVRPLDGGYANGYGNSKWAGEVLLREAHDLCGLPVATFRSDMILAHPRYRGQVNVPDMFTRLLLSLLITGVAPRSFYIGDGERPRAHYPGLTVDFVAEAVTTLGAQQREGYVSYDVMNPHDDGISLDVFVDWLIRAGHPIDRVDDYDDWVRRFETALTALPEKRRAQTVLPLLHAFRAPQAPLRGAPEPTEVFHAAVRTAKVGPGDIPHLDEALIDKYIRDLREFGLI
substrate acceptance, consumption of NADPH by absorbance at 340 nm [4]: accepted N7-acetyl-7-aminoheptanoate as substrate

B4: SEQ ID NO 13: Vibrio fluvialis ω-transaminase (Genbank Accession No. AEA39183.1) (protein, listed as Vibrio fluvialis)
chain: MNKPQSWEARAETYSLYGFTDMPSLHQRGTVVVTHGEGPYIVDVNGRRYLDANSGLWNMVAGFDHKGLIDAAKAQYERFPGYHAFFGRMSDQTVMLSEKLVEVSPFDSGRVFYTNSGSEANDTMVKMLWFLHAAEGKPQKRKILTRWNAYHGVTAVSASMTGKPYNSVFGLPLPGFVHLTCPHYWRYGEEGETEEQFVARLARELEETIQREGADTIAGFFAEPVMGAGGVIPPAKGYFQAILPILRKYDIPVISDEVICGFGRTGNTWGCVTYDFTPDAIISSKNLTAGFFPMGAVILGPELSKRLETAIEAIEEFPHGFTASGHPVGCAIALKAIDVVMNEGLAENVRRLAPRFEERLKHIAERPNIGEYRGIGFMWALEAVKDKASKTPFDGNLSVSERIANTCTDLGLICRPLGQSVVLCPPFILTEAQMDEMFDKLEKALDKVFAEVA
substrate acceptance, formation of L-alanine from pyruvate by RP-HPLC [2]: accepted 7-aminoheptanote as substrate
substrate acceptance, formation of pyruvate from L-alanine by RP-HPLC [3]: accepted pimelate semialdehyde as substrate
reversibility of ω-transaminase activity: pimelate semialdehyde accepted, 7-aminoheptanoate synthesized [3]: accepted pimelate semialdehyde as substrate and synthesized 7-aminoheptanoate as a reaction product
